Source: the supplement of paper PMC7877785
± gives the uncertainty stated by the source.

Experiment: self-splicing fitness, log relative to wild type (ln ratio); higher = more splicing; Tetrahymena group I intron in knt gene, E. coli kanamycin selection, DiMSum; sequences stand for … in CUCUCU…GGAGGGAAAAGUUAUCAGGCAUGCACCUGGUAGCUAGUCUUUAAACCAAUAGAUUGCAUCGGUUUAAAAGGCAAGACCGUCAAAUUGCGGGAAAGGGGUCAACAGCCGUUCAGUACCAAGUCUCAGGGGAAACUUUGAGAUGGCCUUGCAAAGGGUAUGGUAAUAAGCUGACGGACAUGGUCCUAACCACGCAGCCAAGUCCUAAGUCAACAGAUCUUCUGUUGAUAUGGAUGCAGUUCACAGACUAAAUGUCGGUCGGGGAAGAUGUAUUCUUCUCAUAAGAUAUAGUCGGACCUCUCCUUAAUGGGAGCUAGCGGAUGAAGUGAUGCAACACUGGAGCCGCUGGGAACUAAUUUGUAUGCGAAAGUAUAUUGAUUAGUUUUGGAGUACUCGUGGUCG
Method in brief: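 DiMSum derived fitness as the error-weighted combination of fold changes across replicates, kanamycin versus no kanamycin, normalised to wild type. E. coli BL21(DE3) held the library, which randomised all eight P1ex-region intron nucleotides within the knt kanamycin-resistance gene on pET-22b(+). Six replicate transformations grew overnight at 37°C or 30°C on LB agar with or without 25 μg/mL kanamycin, also containing 100 μg/mL carbenicillin, 50 μM IPTG and 0.2% rhamnose, and pooled colonies were amplicon-sequenced on an Illumina HiSeq 2500.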

Sequence	self-splicing fitness (ln) (30 °C)	self-splicing fitness (ln) (37 °C)
CGAUAGCAAUAUUACGCGCA	-0.97 ± 0.12	-0.529 ± 0.12
CGAUAGCAAUAUUACGGAAA	-3.34 ± 0.24	-1.53 ± 0.21
CGAUAGCAAUAUUACGGACA	-2.4 ± 0.28	-0.977 ± 0.16
CGAUAGCAAUAUUACGGCAA	-2.65 ± 0.27	-1.79 ± 0.22
CGAUAGCAAUAUUACGGGGC	-3.2 ± 0.35	-2.56 ± 0.39
CGAUAGCAAUAUUACGGGUU	-3.84 ± 0.21	-3.04 ± 0.24
CGAUAGCAAUAUUACGUAAC	-2.84 ± 0.17	-3.84 ± 0.46
CGAUAGCAAUAUUACGUAAG	-0.163 ± 0.066	0.259 ± 0.082
CGAUAGCAAUAUUACGUCCA	-1.86 ± 0.15	-0.237 ± 0.16
CGAUAGCAAUAUUACGUCGA	-3.77 ± 0.25	-1.15 ± 0.12
CGAUAGCAAUAUUACGUCGC	-3 ± 0.15	-2.79 ± 0.21
CGAUAGCAAUAUUACGUCUG	0.295 ± 0.061	0.0438 ± 0.072
CGAUAGCAAUAUUACGUGGA	-1.9 ± 0.24	-2.62 ± 0.31
CGAUAGCAAUAUUACGUGUG	-0.978 ± 0.057	-0.336 ± 0.07
CGAUAGCAAUAUUACGUUGA	-2.74 ± 0.18	-1.3 ± 0.14
CGAUAGCAAUAUUACGUUGG	-1.62 ± 0.091	-0.0971 ± 0.086
CGCAAGCAAUAUUACGAAAA	-2.47 ± 0.38	-2.96 ± 0.4
CGCAAGCAAUAUUACGAAGG	-1.28 ± 0.098	-0.75 ± 0.15
CGCAAGCAAUAUUACGAAUG	-1.4 ± 0.1	-0.303 ± 0.1
CGCAAGCAAUAUUACGACAA	-2.37 ± 0.17	-1.51 ± 0.16
CGCAAGCAAUAUUACGAUAC	-2.51 ± 0.17	-2.58 ± 0.33
CGCAAGCAAUAUUACGAUUG	-2.21 ± 0.056	-1.01 ± 0.07
CGCAAGCAAUAUUACGCAUC	-2.57 ± 0.12	-2.66 ± 0.12
CGCAAGCAAUAUUACGCAUG	-2.77 ± 0.11	-2.19 ± 0.12

Sequence	self-splicing fitness (ln) (30 °C)	self-splicing fitness (ln) (37 °C)
CGCAAGCAAUAUUACGCGUA	-3.47 ± 0.15	-2.55 ± 0.12
CGCAAGCAAUAUUACGCUCA	-0.828 ± 0.076	-0.6 ± 0.088
CGCAAGCAAUAUUACGCUUA	-3.58 ± 0.35	-1.8 ± 0.18
CGCAAGCAAUAUUACGGAGG	-1.02 ± 0.057	-0.818 ± 0.072
CGCAAGCAAUAUUACGGCGC	-2.37 ± 0.12	-1.73 ± 0.18
CGCAAGCAAUAUUACGGGAA	-2.96 ± 0.2	-2.27 ± 0.19
CGCAAGCAAUAUUACGUAGC	-3.3 ± 0.17	-1.17 ± 0.18
CGCAAGCAAUAUUACGUAGU	-3.1 ± 0.097	-2.75 ± 0.098
CGCAAGCAAUAUUACGUAUG	-2.25 ± 0.091	-0.723 ± 0.091
CGCAAGCAAUAUUACGUCGU	-3.27 ± 0.13	-2.2 ± 0.1
CGCAAGCAAUAUUACGUCUA	-1.6 ± 0.13	-0.573 ± 0.11
CGCAAGCAAUAUUACGUGUC	-2.39 ± 0.12	-2.68 ± 0.16
CGCAAGCAAUAUUACGUUGG	-2.66 ± 0.096	-1.02 ± 0.1
CGCAAGCAAUAUUACGUUGU	-3.69 ± 0.11	-2.41 ± 0.12
CGCAAGCAAUAUUACGUUUG	-4.31 ± 0.26	-2.8 ± 0.24
CGCCAGCAAUAUUACGAAUA	-3.44 ± 0.34	–
CGCCAGCAAUAUUACGACAA	-2.46 ± 0.31	-0.75 ± 0.15
CGCCAGCAAUAUUACGACCC	-1.84 ± 0.21	-1.46 ± 0.39
CGCCAGCAAUAUUACGACGG	-1.65 ± 0.11	-0.853 ± 0.12
CGCCAGCAAUAUUACGAGCA	-0.418 ± 0.064	0.817 ± 0.092
CGCCAGCAAUAUUACGAUGA	-2.2 ± 0.12	-1.48 ± 0.13
CGCCAGCAAUAUUACGAUUU	-2.75 ± 0.19	-2.62 ± 0.2
CGCCAGCAAUAUUACGCAAG	-1.03 ± 0.077	-0.526 ± 0.091
